Assay results: PMC6698644 (Nucleic Acids Research, 2019)

How the values were obtained:
[1] = molecular target: the molecule itself; experiment: crystal structure
[2] = molecular target: the molecule itself; experiment: SEC
[3] = molecular target: T1, LeuO-S120D-His6 (Escherichia coli K12, UniProt P10151 1-314, S120D); experiment: SPR
T1 sequence: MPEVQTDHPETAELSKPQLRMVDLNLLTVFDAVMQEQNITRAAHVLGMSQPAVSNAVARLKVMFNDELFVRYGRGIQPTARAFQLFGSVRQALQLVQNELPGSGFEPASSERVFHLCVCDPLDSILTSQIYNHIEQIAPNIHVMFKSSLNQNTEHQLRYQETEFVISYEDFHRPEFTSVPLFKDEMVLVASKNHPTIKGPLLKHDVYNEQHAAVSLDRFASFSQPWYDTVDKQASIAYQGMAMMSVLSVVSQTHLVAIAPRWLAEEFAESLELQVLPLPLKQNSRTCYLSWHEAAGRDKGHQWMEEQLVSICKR

[4] = molecular target: T2, LeuO-His6 (wild type) (Escherichia coli K12, UniProt P10151 1-314); experiment: SPR
T2 sequence: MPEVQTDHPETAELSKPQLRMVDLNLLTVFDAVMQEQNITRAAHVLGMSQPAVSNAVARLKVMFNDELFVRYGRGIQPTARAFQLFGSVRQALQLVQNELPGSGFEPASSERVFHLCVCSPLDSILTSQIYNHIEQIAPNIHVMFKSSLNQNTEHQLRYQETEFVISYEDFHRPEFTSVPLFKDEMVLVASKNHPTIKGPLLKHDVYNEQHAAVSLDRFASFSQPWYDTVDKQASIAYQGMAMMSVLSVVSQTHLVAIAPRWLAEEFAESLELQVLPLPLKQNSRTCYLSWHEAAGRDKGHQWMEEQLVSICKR

[5] = molecular target: T1, LeuO-S120D-His6; experiment: gel filtration
[6] = molecular target: T2, LeuO-His6 (wild type); experiment: gel filtration
[7] = molecular target: T1, LeuO-S120D-His6; experiment: SPR; remark: listed apart in the source
[8] = molecular target: T3, LeuO-DBD-His6 (Escherichia coli K12, UniProt P10151 1-101); experiment: SPR
T3 sequence: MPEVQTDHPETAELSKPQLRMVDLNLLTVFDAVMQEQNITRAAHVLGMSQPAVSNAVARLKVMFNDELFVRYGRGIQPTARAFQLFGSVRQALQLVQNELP

[9] = molecular target: T2, LeuO-His6 (wild type); experiment: SPR; remark: listed apart in the source

B1: LeuO-S120D effector-binding domain, C-terminally histidine-tagged (LeuO-S120D-EBD_(His6)) (domain or fragment, Escherichia coli)
chain: SSERVFHLCVCDPLDSILTSQIYNHIEQIAPNIHVMFKSSLNQNTEHQLRYQETEFVISYEDFHRPEFTSVPLFKDEMVLVASKNHPTIKGPLLKHDVYNEQHAAVSLDRFASFSQPWYDTVDKQASIAYQGMAMMSVLSVVSQTHLVAIAPRWLAEEFAESLELQVLPLPLKQNSRTCYLSWHEAAGRDKGHQWMEEQLVSICKR
[1]
  binding result: binds

B2: LeuO, C-terminally histidine-tagged (LeuO_(His6)) (natural protein, Escherichia coli, UniProt P10151 1-314, looked up)
chain: MPEVQTDHPETAELSKPQLRMVDLNLLTVFDAVMQEQNITRAAHVLGMSQPAVSNAVARLKVMFNDELFVRYGRGIQPTARAFQLFGSVRQALQLVQNELPGSGFEPASSERVFHLCVCSPLDSILTSQIYNHIEQIAPNIHVMFKSSLNQNTEHQLRYQETEFVISYEDFHRPEFTSVPLFKDEMVLVASKNHPTIKGPLLKHDVYNEQHAAVSLDRFASFSQPWYDTVDKQASIAYQGMAMMSVLSVVSQTHLVAIAPRWLAEEFAESLELQVLPLPLKQNSRTCYLSWHEAAGRDKGHQWMEEQLVSICKR
[2]
  stoichiometry N: 4

B3: LeuO-S120D, C-terminally histidine-tagged (LeuO-S120D_(His6)) (natural protein, Escherichia coli, UniProt P10151 1-314, looked up)
chain: MPEVQTDHPETAELSKPQLRMVDLNLLTVFDAVMQEQNITRAAHVLGMSQPAVSNAVARLKVMFNDELFVRYGRGIQPTARAFQLFGSVRQALQLVQNELPGSGFEPASSERVFHLCVCDPLDSILTSQIYNHIEQIAPNIHVMFKSSLNQNTEHQLRYQETEFVISYEDFHRPEFTSVPLFKDEMVLVASKNHPTIKGPLLKHDVYNEQHAAVSLDRFASFSQPWYDTVDKQASIAYQGMAMMSVLSVVSQTHLVAIAPRWLAEEFAESLELQVLPLPLKQNSRTCYLSWHEAAGRDKGHQWMEEQLVSICKR
[2]
  stoichiometry N: 4

B4: SPR fragment A, cas LeuO site II (60 bp) (dsDNA)
DNA 1: GGGGGTTTATATTCACAGTATGAATATTTTATGTAATAAAATTCATGGTAATTATTATAACTAAAGGGGG
DNA 2: CCCCCTTTAGTTATAATAATTACCATGAATTTTATTACATAAAATATTCATACTGTGAATATAAACCCCC
[3]
  Kd: 0.2 nM
[4]
  Kd: 0.7 nM

B5: gel filtration fragment, cas LeuO site II (60 bp) (dsDNA)
DNA 1: TTTATATTCACAGTATGAATATTTTATGTAATAAAATTCATGGTAATTATTATAACTAAA
DNA 2: TTTAGTTATAATAATTACCATGAATTTTATTACATAAAATATTCATACTGTGAATATAAA
[5]
  binding result: binds
[6]
  binding result: binds

B6: SPR fragment B, cas core-site (25 bp) (dsDNA)
DNA 1: GGGGGTTTATATTCACAGTATGAATATTTTGGGGG
DNA 2: CCCCCAAAATATTCATACTGTGAATATAAACCCCC
[3]
  Kd: 0.6 nM
[4]
  Kd: 0.9 nM

B7: SPR fragment C, scrambled (60 bp) (dsDNA)
DNA 1: GGGGGGTAAATTACATAATGCGATTAAAATTTATTTTCAAAAGTTTAATTTAACATTGAATTTATGGGGG
DNA 2: CCCCCATAAATTCAATGTTAAATTAAACTTTTGAAAATAAATTTTAATCGCATTATGTAATTTACCCCCC
[7]
  binding result: no binding
[8]
  binding result: no binding
[9]
  binding result: no binding
